# Data taken from US20030119090.
# T1: Boc-Tyr-Thr(α-Man)-Val-OMe (Compound 10)
# T1 chain: YTV
# T2: Cbz-Thr(α-Man)-Val-Gly-Ala-NH2 (Compound 9)
# T2 chain: TVGA
# T3: Cbz-Thr(α-Man)-Val-OMe (Compound 7)
# T3 chain: TV
# T4: Cbz-Thr(αManα1,2Man)-Val-OMe (Compound 11)
# T4 chain: TV
# T5: Thr(α-Man)-Val-OMe (Compound 8)
# T5 chain: TV
# Key:
# [1] = molecular target: T1, Boc-Tyr-Thr(α-Man)-Val-OMe (Compound 10)
# [2] = molecular target: T2, Cbz-Thr(α-Man)-Val-Gly-Ala-NH2 …
# [3] = molecular target: T3, Cbz-Thr(α-Man)-Val-OMe (Compound 7)
# [4] = molecular target: T4, Cbz-Thr(αManα1,2Man)-Val-OMe (Compound …)
# [5] = molecular target: T5, Thr(α-Man)-Val-OMe (Compound 8)
protein,measurement,setting,value
"recombinant α1,2-mannosyltransferase (soluble catalytic domain, protein sequence 31-442 of α1,2-ManT from S. cerevisiae, expressed from pManflag20 in the E. … (protein) RTQQYIPSSISAAFDFTSGSISPEQQVISEENDAKKLEQSALNSEASEDSEAMDEESKALKAAAEKADAPIDTKTTMDYITPSFANKAGKPKACYVTLVRNKELKGLLSSIKYVENKINKKFPYPWVFLNDEPFTEEFKEAVTKAVSSEVKFGILPKEHWSYPEWINQTKAAEIRADAATKYIYGGSESYRHMCRYQSGFFWRHELLEEYDWYWRVEPDIKLYCDINYDVFKWMQENEKVYGFTVSIHEYEVTIPTLWQTSMDFIKKNPEYLDENNLMSFLSNDNGKTYNLCHFWSNFEIANLNLWRSPAYREYFDTLDHQGGFFYERWGDAPVHSIAAALFLPKDKIHYFSDIGYHHPPYDNCPLDKEVYNSNNCECDQGNDFTFQGYSCGKEYYDAQGLVKPKNWKKFRE","Km (acceptor), mannosyl transfer reaction",[1],0.7 mM
same,"Km, fold lower than that of Compound 7",[1],This value is 10 times less than that of Compound 7
same,"Km, fold lower than that of ManαOMe (Compound 1)",[1],80 times smaller than that of ManαOMe (Compound 1)
same,"Vrelative (ratio of Vmax, ManαOMe = 1.0), mannosyl transfer from GDP-Man to acceptor",[1],0.35
same,"Vrelative (ratio of Vmax, ManαOMe = 1.0), mannosyl transfer from GDP-Man to acceptor",[2],0.55
same,"Km (acceptor), mannosyl transfer reaction",[3],7.8 mM
same,"Vrelative (ratio of Vmax, ManαOMe = 1.0), mannosyl transfer from GDP-Man to acceptor",[3],0.71
same,"Km (acceptor), mannosyl transfer reaction",[4],26 mM
same,"Vrelative (ratio of Vmax, ManαOMe = 1.0), mannosyl transfer from GDP-Man to acceptor",[4],0.17
same,"Vrelative (ratio of Vmax, ManαOMe = 1.0), mannosyl transfer from GDP-Man to acceptor",[5],0.68
